The DeepSol protein solubility set

Assay: soluble on expression in E. coli; label from the status in PepcDB or PDB records

Row | Sequence | soluble on expression in E. coli
1 | MKFVAPEQAPEQAEVIKNTPFWPDVDLSEFRSVMRTDGTVTQPRLKQVVLTAISEVNAELYDFRNRQQMLGWRTLAEVPAEMLDGKSERIRHYHNAVFCWARAVLNERYQDYDATASGVKRGEELAEASGDLWRDARWAISRVQDVPHCTVELI | not soluble
2 | MAQKKPKRNLSALKRHRQSLKRRLRNKAKKSAIKTLSKKAIQLAQEGKAEEALKIMRKAESLIDKAAKGSTLHKNAAARRKSRLMRKVRQLLEAAGAPLIGGGLSA | soluble
3 | MKITVPATSANIGPGFDSVGVAVSKYLTIEVLEPADVWFIEHDLGDIPSDENNLLISTALQVKSDLQPHKLVMASDIPLAR | not soluble
4 | MSLNPNDFKDELKSVALEKANVNLRLDGDISWSFFPWLGLGLEDIGVSIGSDPEILQFDRAEFGLAILPLLKQKIQVDKVNLVNLKASLNKNAQGQGNWQLDLPDSTPAASSSIPATTASTASSTSANDTVEKLKLPDIQLDELRIENAQVQYRDEQTKQLINATLNVQLNDVQWDKAWPMVMDIAVTQSDLQGKSPIKAKATLNANLAVFPEREALSLDSLVLSADVESELLPTSPISAKLSAANVDVDLPQENVLAEGLALSVLGVNVDAKIQAYQVLSEPQFSAVLTVGEFNPRYLMTRLNLPLPEMSDDTAMTKARANVTLEGSLDSITAQPISITIDDTNIEANAVVDLSPLRWDVSVAGKNLDLDRYLPTPVEKGKDGKVEAITDVDIAAKTESGDLIPIDLIRSLNGHVGMVFENLTAKKLKIDKIELDSTQSNGLVKISPLRAYLYKGSVSSKASLDVRGITPVFNISPAIDGVQIQPLLVDFMDMNKIAGATYLNGELKAKGNSVDDLMSSLQGDLLIDIKKGALVGTNLTKTVCEGIAAVRKEKIDEQQFGPDTPFETMRFPAHIVNGRVSTPGLKISSAGIQVTGDGVVSLPNSSLDYQANVGIAGSELDKACHVNEKVTKLAFPIVCKGKFSDDPAGLCRPDIKGFGKLFADLAEDELKLKVDAEKARLKEGHHHHHH | soluble
5 | MSLTEEQLLFRIALTHVKGVGSVLARQLLSAMGSPEAIFSDRKELVQRLPKAPRRLLDAIFSPSVMEEARRKLDQALKAGLNMYFITDDNYPYRLKECVDAPILLYSKGNVDLSPRRVLSIVGTRNITAYGRTATERIVSGLAETIPDLLIVSGLAYGVDVAAHKAALDNGLPTVAVLAHGLDRIYPSGHRSIAMEMLRNGGLLTDYPMGTEPERFNFVGRNRIVAGLSDATLVIESAEKGGSLITAGLAFGYNREVLALPGRATDSRSAGCNALIRDQKAALVSSAQDVLTLLDWSSTIDAKPQTEGHHHHHH | soluble
6 | MAHSKHGLKEEMTMKYHMEGCVNGHKFVITGEGIGYPFKGKQTINLCVIEGGPLPFSEDILSAGFMYGDRIFTEYPQDIVDYFKNSCPAGYTWGRSFLFEDGAVCICNVDITVSVKENCIYHKSIFNGMNFPADGPVMKKMTTNWEASCEKIMPVPKQGILKGDVSMYLLLKDGGRYRCQFDTVYKAKSVPSKMPEWHFIQHKLLREDRSDAKNQKWQLTEHAIAFPSALA | soluble
7 | MSLVLAYYSGYAGNYAALTRYAASFNAVAVDFYNITAQGAVTGNGDPAPNDAISFLLGRKIPAYGCVSNVDGNGNWSADIAHAVSTSAQSQAVANLVKFAQDKRFSGINVDFEAVAQGDRNNFSHFIQVLGRALHAKGLKLIVSVPAFSAKDENHPANYGYDLRALGAAADYLQIMSYDEAIPAWDPGPVAGSDWMEDDLDYAVERVPAAKILNGIPAYGYDWKRPGDGGMLYWKDTQALIARYGAQPRYDAGTHSLTFNYGAADGSRHTVWTENARSVALKASLVNAYGLGGTSLYALGMEDEGHHHHHH | soluble
8 | MGHHHHHHSHMKNMEQQHIEVVGKLGSTYGIRGWLRIYSSTEQAESIFDYQPWFLKIKGEWQSIELENWRYHNHEIIVKLKGVDDREAAQILANVEIGVDLSVFPELEEGDYYWHDLIGCTVVNLEGYTMGTVTEMMETGSNDVLVVKANTKDAFGKQERLIPFLYEQVVKRVDLTTKTIEVDWDAGF | soluble
9 | SPSAEECGYSDRVRSITLGNSTITTQESANVVVGYGRWPEYLRDDEATAEDQPTQPDVATCRFYTLESVTWEKDSPGWWWKFPDALKDMGLFGQNMYYHYLGRAGYTIHVQCNASKFHQGCLLVVCVPEAEMGCSTVDGTVNEHGLSEGETAKKFSATGTNGTNTVQSIVTNAGMGVGVGNLTIFPHQWINLRTNNCATIVMPYINNVPMDNMFRHHNFTLMIIPFVPLNYSSDFSTYVPITVTVAPMCAEYNGLRLSTALQ | soluble
10 | MYEEFRDVITFQSYVEQSNGEGGKTYKWVDEFTAAAHVQPISQEEYYKAQQLQTPIGYNIYTPYDDRIDKKMRVIYRGKIVTFIGDPVDLSGLQEITRIKGKEDGAYVG | soluble
11 | MADTTILDTTCSSTLAANVEFSHATDSAIGISLKNATITEAEGVPNLKETGYDCVRYMGTCNGGQIYLGRERKKLKDYVAIKKFAIDDVDDYAAIAKESSNLRLMHHPNIIELCECFVYERSIYQITPAMNLGSLFDIVFEYMKWGINEKSAAAITRQLLDALSYLHQRRYIHRDLKPKHILIDSSGNVKLSGFRFMIELNHHLDCVFEFDAHLQNQLYYLAPEVLAQNIHGYTSKSDIYMLGISICEAINGVMPFGELEPLEMLHRKLNGQVPRPVDMISLKDDQKMGLDISHRPQEHLTRRFSKEMHEFIANCLDYDPQQRGSASDLKSSAWLGSKIHKNLGPVDVRQELNLDYAHFDLSLWEQEPLIPMEPDQKYEIVFDYSPIS | not soluble
12 | MVKETKFYDILGVPVTATDVEIKKAYRKCALKYHPDKNPSEEAAEKFKEASAAYEILSDPEKRDIYDQFGEDGLSGAGGAGGFPGGGFGFGDDIFSQFFGAGGAQRPRGPQRGKDIKHEISASLEELYKGRTAKLALNKQILCKECEGRGGKKGAVKKCTSCNGQGIKFVTRQMGPMIQRFQTECDVCHGTGDIIDPKDRCKSCNGKKVENERKILEVHVEPGMKDGQRIVFKGEADQAPDVIPGDVVFIVSERPHKSFKRDGDDLVYEAEIDLLTAIAGGEFALEHVSGDWLKVGIVPGEVIAPGMRKVIEGKGMPIPKYGGYGNLIIKFTIKFPENHFTSEENLKKLEEILPPRIVPAIPKKATVDECVLADFDPAKYNRTRASRGGANYDSDEEEQGGEGVQCASQ | not soluble
13 | MSLNKIDMPVLNVKMVPVEKIKSNSYNPNHVAGPEMELLELSILKDGYTQPIVCYCDDKKDEYIIIDGFHRYLIGKSKLDLKELPVVVIDKPLEQRMSSTIRHNRARGKHEIDKMSELVLLLVNEGWDDHKIGKELGMEKEEVLRLKQVTGLKSAFLNHEFSESWDEFVKKNYPKQKDEEGGSHHHHHH | soluble
14 | MAFEGLADRLQQTMQKIRGKGKVSEADVKEMMREVRLALLEADVNFKVVKDFVKRVSERAVGQDVMKSLTPGQQVIKVVQEELTELMGGEQSKIAIANKPPTVIMMVGLQGAGKTTTTGKLANLLRKKHNRKPMLVAADIYRPAAIKQLETLGKQLDMPVFSLGDQVSPVEIAKQAIAKAKEDHHDYVLIDTAGHLHIDEELMDELAKVKEVAKPDEIFLVVDAMTGQDAVNVAQSFHEQLGLTGVVLTKLDGDTRGGAALSIKAVTNTPIKFAGMGEKLDALEAFHPERMASRILGMGDVLTLIEKAQATVDEEKAKELEQKMRTLSFTLDDFLEQLGQVRQLGPLDELLGMLPGANKIKGLKNAQVDEKQIGHIEAIIRSMTKLEREQPEIINASRKKRIAKGSGTTVQEINRLIKQFDDMKKMMKTMTGMQKGKKKGLGGLKFPFM | not soluble
15 | MGSDKIHHHHHHMNDEVSKNISLSDFEPYFKEDYFREDYFYFDNAVNSPETSDRQAGVIWNLLSLGQGSSVLELGCGYGRITNRLAKKGAHVVGLDISPILLKEAETDAAERGVKVEYVLGDMRSLPWRDRFDAAFLWYTTFGYFDDADNERVLREAASSLRKGGRLLIDHPNRIDFLRHKSPVCYVTQRNNDVRIDMFSNDVLSDRSNLERLIVRDGCVRRTHLSFRQYGVSEYVRMLRSAGFETVEAYGQEGEAFTSDSSRLVVVACK | not soluble
16 | MGRGRSSSSSSIESSSKSNPFGASSSTRNLSTDLRLGLSFGTSSGTQYFNGGYGYSVAAPAVEDAEYVAAVEEEEENECNSVGSFYVKVNMEGVPIGRKIDLMSLNGYRDLIRTLDFMFNASILWAEEEDMCNEKSHVLTYADKEGDWMMVGDVPWEMFLSTVRRLKISRANYHY | soluble
